For 1 substance, luminescence relative to the control (x above the control) results are on record in doi:10.1101/477745.

The assay concerns the target Era fused to SB (small bit of luciferase) (S. aureus) (UniProt Q2FGF6). Kind of assay: split reporter.

Chain of YbeY (split luciferase fusion) (natural protein) (A5IT98 whole entry, the tested form may be a part): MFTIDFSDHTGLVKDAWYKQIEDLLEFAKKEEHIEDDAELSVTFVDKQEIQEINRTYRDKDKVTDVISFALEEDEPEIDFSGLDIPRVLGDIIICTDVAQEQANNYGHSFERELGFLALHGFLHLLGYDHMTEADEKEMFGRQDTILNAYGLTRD
Chain of Era fused to SB (small bit of luciferase) (S. aureus) (Q2FGF6 whole entry, the tested form may be a part): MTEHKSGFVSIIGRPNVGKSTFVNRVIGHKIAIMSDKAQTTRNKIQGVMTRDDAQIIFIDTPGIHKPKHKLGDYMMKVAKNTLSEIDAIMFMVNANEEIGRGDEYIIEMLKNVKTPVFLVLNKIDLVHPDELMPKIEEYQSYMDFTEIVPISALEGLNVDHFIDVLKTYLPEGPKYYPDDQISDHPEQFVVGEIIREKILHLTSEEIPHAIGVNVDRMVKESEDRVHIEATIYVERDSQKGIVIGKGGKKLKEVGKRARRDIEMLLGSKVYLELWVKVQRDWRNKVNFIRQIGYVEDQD

In turn, “YbeY (split luciferase fusion) (natural protein)” had a luminescence relative to the control (x above the control) of 2.
